In the nanobody polyreactivity screen of Harvey et al. (2022):

Assay: yeast display, Sf9 membrane polyspecificity reagent, FACS + sequencing; frameworks hold sequencing errors
Outline: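 Nanobodies came from a synthetic yeast display library in Saccharomyces cerevisiae BJ5465, induced with galactose for 36–48 hours and stained for 1 hour at 4 °C with 10% biotinylated, detergent-solubilized Sf9 membrane reagent. Cells were enriched on streptavidin microbeads and then FACS-sorted, with low and high (top ~1%) gates set on anti-HA fluorescence for expression and streptavidin fluorescence for reagent binding. Each polyreactivity label reflects the gate a clone came from. Genes were amplified by colony PCR, sequenced by MiSeq 2 × 250 and filtered by CDR length.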

| Sequence | polyreactivity (PSR sort gate) |
| --- | --- |
| QVQLVESGGGLVQAGGTLRLTCAASGFTLTRNAMGWYRQAPGKERELVAAISRSGGSTYYADSVKGRFTISRDNAKNTVYLQMNSLKPEDTAVYYCAADDKYFYPGNGYWGLGTQVTVSS | high polyreactivity |
| QVQLVESGGGLVQAGGTLSLSCAASGGTFSTNTMGWYRQATGKERELVAAITEGTGNTYYADSVKGRFTISRDNAKNTVYLQMNSLKPEDTAVYYCATAYAVYHVEYGYWGQGTQVTVSS | low polyreactivity |
| QVQLVESGGGLVQAGRILRISCAASGFKYAMGWYRQEPGKERELVAAISSGGITSYADSVKGRFTISRDNAKNTVYLQMNSLKPEDTAVYYCAAALRRRRAYFDYWGQGTQVTVSS | high polyreactivity |
| QVQLVESGGGLVQAGRSLPLSCAASGRIIELYGMGWKRPATGKERELVAAMSYGGGSTYYAESVKGRFTISRDNAKNTVYLQMNSLKPEDTAVYYCAARYRTLTKYYWGQGTQVTVSS | low polyreactivity |
| QVQLVESGGGLVQAGRSLRLICAASGRTFSPNTMGWYRQAPGKEREFVAAINRSGGTTYYADSVKGRFTISRDIAKNTVYLQMNSRKPEDTAVYYCAADSIVPIYRGNDDNYWGQGTQVTVSS | low polyreactivity |
| QVQLVESGGGLVQAGRSLRLSCAASGFTFGYYAMGWYRQAPGKERELVASISITAGSTYYADSVKGRFTISRDNAKNTVYLQMNSLTPEDTAVYYCAAKRRTRQSYYTEYYWGQGTQVTVSS | high polyreactivity |
| QVQLVESGGGLVQAGRSLRLSCAASGFTFVWYAMGWYRQAPGTERELVAAISRRGTRTYYADSVKGRFTISRDNAKNTVYLQMNSLKPEDTAVYYCAASNGYQAVTYDYWGQGTQVTVSS | high polyreactivity |
| QVQLVESGGGLVQAGRSLRLSCAASGIISYRNGMGGYRQAPGKERELVASISKRADSTYYADSVKGRFTISRDNAKNTVYLQLNSLKPEDTAVYYCAARRLITCYGQTHYGYWGQGTQVTVSS | high polyreactivity |
| QVQLVESGGGLVQAGRSLRLSCAASGITFPVYPMGWYRQAPGKERELVATITSSGGRTYYADSVKGRFTISRDNAKNTVYLQMNSLKPEDSAVYYCAAANGKGQGGYDYWGHGTQVTVSS | high polyreactivity |
| QVQLVESGGGLVQAGRSLRLSCAASGLIFRYYPMGWYRQAPGKEREFVAAISGRGASTYYADSVKGRFTISRDYAKNSVYLQMNCLKPEDTAVYYCATFFPSAVVAFHMDYWGQGTQVTVSS | low polyreactivity |
| QVQLVESGGGLVQAGRSLRLSCAASGRIFFGYAMGWYRQAPGKERELVAVISSGCRTYYADSVKGRFTISRDNAKNTVYLQMNSLKAEDTAVYYCAAIIPPTKQRGYYYVGRSEYDYWGQGSQVTVSS | low polyreactivity |
| QVQLVESGGGLVQAGRSLRLSCAASGRIFQWNAMGWYRQAPGKERELVADITYSGSSTNYADSVKGRFTISRDNAKNSVYLQMNSVKPEVSAVYYCTRDFYQYLSYFWHYVYWGQGTQETVSS | low polyreactivity |
| QVQLVESGGGLVQAGRSLRLSCAASGRIFRSYAMGWYRQAAGKERELVAAINYSGGNTYYADSVKGRFTISRDNAKNTVYLQLNCVKPDDTAVFYCNARGYYYSSRYGYWGQGTQVTVSS | high polyreactivity |
| QVQLVESGGGLVQAGRSLRLSCAASGRTFCYYAMGLYRKAPGKERELIAAITNRGGNTYYADSVKGRFTISRDNAKNTVYLQMNSLKPEDTAVYYCAAYNRIYGYHTLYYWGQGTQVTVST | high polyreactivity |
| QVQLVESGGGLVQAGRSLRLSCAASGRTFGYNPMGWYRQAPGKEREFVAAISYSGTSTYYADSVKGRFTISRDNAKNTVYLQMNSLKPEDTAVYYCNAEALISWRYDYWGQGTQVTVSS | low polyreactivity |
| QVQLVESGGGLVQAGRSLRLSCAASGRTFPYNAMGWYRQAPGKERELVAAITWSGGSTYYADSVKGRFTISRDNAKNTVYLQMNSLKAEDTAVYYCNKDFPVFEYDYWGQGTQVTVSS | low polyreactivity |
| QVQLVESGGGLVQAGRSLRLSCAASGRTFPYNAMGWYRQAPGKESELVAAITSGGTTNYADSVKGRFTISRDNAKSTVYLQFNRLKPEDTAVYYCAADSDASSQFRRDYWGQGSQVTVSS | low polyreactivity |
| QVQLVESGGGLVQAGRSLRLSCAASGRTFRGYAMGWYRQAPGKERELVAAITWRGGSTYYADSVKGRFTISRDNGKNTVYLLMNSLKPEDCAVYYCNARQWPLAYEYWGLGTQVTVSS | high polyreactivity |
| QVQLVESGGGLVQAGRSLRLSCAASGRTFVFNAMGWYRQAPGKERELVARITLSGGSTYYADSVKGRFTISRDNAKNTVYLQMNSLKPEDTAVYYCAASHYFWFVQNDSDYWGQGTQVTVSS | low polyreactivity |
| QVQLVESGGGLVQAGRSLRLSCAASGRTLHQYDMGWFRQAPGKEREFVAVIDSSDGSTYYADSVKGRFTISRDNVKNTVYLQMNSLKPEDSAVYYCLGGYYYLQYDYWGQGTQVTVSS | low polyreactivity |
| QVQLVESGGGLVQAGRSLRLSCAASGRTYGIYAMGWYRQAPGKERQLVAAITWSGDSTYYADSVKGRFTISRDNAKNTVYLQMNSLKPEDTAVYYCAADYVGVTSVRYDYWGQGTQVTVSS | low polyreactivity |
| QVQLVESGGGLVQAGRSLRLSCAASGSIFRIYAMGWYGQAPGKERELVAAITWSGGGTYYADSVKGRFTNSRDNAKNTVYLQMYSLKPEDTAVYYCAADYWGYDIYYGLSERESWGQGTQVTVSS | high polyreactivity |

| Sequence | polyreactivity (PSR sort gate) |
| --- | --- |
| QVQLVESGGGLVQAGRSLRLSCAASGSNFLTNTMGWYRQAPGKERELVAAITLRGGRTYYADSVKGRFTISRDNAKNTVYLHMNSLKPEDTAVYYCNARNYYYPSDRDYWGQGTQVTGSS | low polyreactivity |
| QVQLVESGGGLVQAGRSLRLSCAASGSTFDQYDMGWYRQAPGKERELVAAISQSGDRTYYADSVKARFTISRDYAKTTVYLQMNSLQPDDTAVYYCADDGVSQDYYYRYDYWGQCTQVTVSS | low polyreactivity |
| QVQLVESGGGLVQAGRSLRLSCAASGSTLQNNGMGWYRQAPGKERELVAAISIGGDTNYADSVKGRFTISRDNAKNTEMNSMKPEDTAGYYCNTDYFGSQVVVIFDFWGQGTQVTVSS | low polyreactivity |
| QVQLVESGGGLVQAGRSLRLSCAASGSTSERYDMGWYRQAPGKERELVATITWSGGDTHYADSVKGRFTISRDNAKNSVYLQLNSLKPEDTAVYYCAAEYTFVWGMWYDYWGQGTQVTVSS | low polyreactivity |
| QVQLVESGGGLVQAGRSLRLSCAASVSIFRPNAMGWYRQAPGKERDLVAAISSSGGSTYYSDSVKGRFTISRDNAKNTVYLQMNSLKPDDTAVYYCAAESLSTWIHSRDSWGQGTQVTVSS | low polyreactivity |
| QVQLVESGGGLVQAGRSLRLSCPASGSIFIIYAMGWYRQQPGKERELVAAISASGGITYYADSVKGRFTISRDNAKNTVYLQMNRLKPEDTAVYYCAARRYRYFWVPRPYDYWGQGTQVTVSS | high polyreactivity |
| QVQLVESGGGLVQAGRSLRLSSAASGSIVAPNPMGWYRQAPGKEREYVAAITLDDGRTYYADSVKGRFTISRDNSNNTVYLHMNSRKPEDTAVYYCNAEWRGYSVYWRTRYDSWGQGTHVTVSS | low polyreactivity |
| QVQLVESGGGLVQAGRSLRLSSAASGSTFYYNPMGWYRQAPGKERELVAAISGGDSTYYADSVKGRFTISRDNAKNTVYLQMNSMKPEDTAVYYCAAASRRRSDGRRYGYWGQGTQVTVSS | high polyreactivity |
| QVQLVESGGGLVQAGRSLRLTCAASGRTFWWYAMGWYRQAPGKEWEFVAAISQRGTSTYYADSVKGRFTISRDNAKNTVYLQMNSLKPEDTAVYDCAATVYPSWYVLFTARRMDYWGQGTQVTVSS | high polyreactivity |
| QVQLVESGGGLVQAGRSLRVRCAASGSTFGLYAKGWYRQAPGKERELVADITWSGGTTYYADSVMGRFTFSRDNAKNTVYLEINSLKPEDTAVYYCAARYPWVYDDFDYWGQGTQVNVSS | low polyreactivity |
| QVQLVESGGGLVQAGSSLRLSCAASGSTFVNNAMGWYRQAPGKERELVAAITSGGSTNYADSVKGRFTISRDNAKNTVYLQMNSLKPEDTAVYYCNADGDSWYTGIPAVSHGYWGQGTQVTVSS | low polyreactivity |
| QVQLVESGGGLVQAGVSHRLSCAASGSIYYYYAMGWYRQAPGKESELVAGITTSGGSTYYAESVKVRFTISRDNAKNTVYLQMISLKPEDNAVYYCAAYDYISSTYFLDDYWGQGTQVTVSS | low polyreactivity |
| QVQLVESGGGLVQAGVSLLLSCAATGIIFSYYAMGWYRQAPGKERELVAAISWNSGSTYYADSVKGRFTISRDNAKNTVYLQMNSLKPEDTAVYYCAAESYYSYSYYRPYEYYYWGQGNQVTVSS | high polyreactivity |
| QVQLVESGGGLVQAGVSLLLTCAASGRISFRYAMVWYRQAPGKERELVAAINRGGITNYADSVKGRFTISRDNAKNTVYLKMNSLKKEDTAVYYCAARYASPRYKSKMDYWGQGTQVTVSS | high polyreactivity |
| QVQLVESGGGLVQAGVSLPLSCAASGIIFFSYAMGWYRPAPGKERELVAAITSRGTSTYYADSVKGRFTISRDNAKNTVYLQLISLKPEDTAVYYCAARWLWRASKVDYWGQGTQVTLSS | high polyreactivity |
| QVQLVESGGGLVQAGVSLRFSCAASGYIFDVNALGWYRQEPGKERELVAAISQRGTRTYYADSVKGRFTITRDNANNTVFLQMNSLKPEYTAVYYCNRGGWRQYDSWGQGTQVTVSS | high polyreactivity |
| QVQLVESGGGLVQAGVSLRLICAASGRTFGRSVMGWYRQAPGKERELVAAITSSSSSTYADSVKGRFTISRDNAKNTVYVQMNSLKPEDTEVYYCNKRYPSRHLPEYDYWGQGTQVSVSS | high polyreactivity |
| QVQLVESGGGLVQAGVSLRLSCAASASTFSIYAMGWYRHAPGKERELVAAIDSGGRTKYADSVKGRFTISRDNAKNPVYLQMNSLKPEDTAVYYWAAVFRGWWLYDYWGLGTQVTVSS | low polyreactivity |
| QVQLVESGGGLVQAGVSLRLSCAASGFILDYNTMGWYRQAPGKERELVAAISSSGDTTYYADSVKGRFTISRDNAKNTVYLQMNSLKREDTAVYYCAREYGVGYEYWGLGTQVTVSS | low polyreactivity |
| QVQLVESGGGLVQAGVSLRLSCAASGFTFGRYAMGWYRQAPGKERELVAAISNSGGSTYYADSVKGRFTISRDNAKNTVYLQMNSLKPEATAVYYCAARDSYWSVYYWGQGTQVTVSS | high polyreactivity |
| QVQLVESGGGLVQAGVSLRLSCAASGLIFGQNAMGWYRQAPAKERELVAAISQRGGTYYADSVKGRFTISRDNSKNTVYLQMNSLKPEDTAVYYCAARVGLQPGRYYLRYDYWGQGTQVTVSS | low polyreactivity |
